Test results: patent US12303551B2, “Cellular immunotherapy compositions and uses thereof” (CERO THERPEUTICS HOLDINGS, INC., priority 2018, dated 2025)

Experiments:
SCC152 target cells = test: Phagocytosis of SCC152 by CD4+ T cell/CER, fluorescence microscopy with hybrid capture; type: cell-based; details: TRAF-domain CERs, 4 hours, 1:1:0.5 (CD8:CD4:target cell); versus CD4+ control + CD8+/E7 TCR
Description: FIG. 28 is a bar graph representing quantification of CD4+ T cell-CER mediated phagocytosis of SCC152 target cells. Results calculated as ((number of phagocytic target events)/(total number of effectors))*100 from 3×3 40× images, 4 hours after initiation of co-culture assay. CD8+ T cells transduced with HPV16 E7 TCR and CD4+ T cells transduced with selected CERs (CER5, CER17, CER19, CER21, CER23, CER26, CER27, CER103b, CER104, CER105, CER106, or CER116) were co-cultured with SCC152 squamous head and neck carcinoma target cells at a 1:1:0.5 ratio for 4 hours and imaged.
FIG. 29 is a bar graph representing quantification of CD4+ T cell-CER mediated phagocytosis of SCC152 target cells. Results calculated as (median area ratio of target events in effector cells*% phagocytosis) from 3×3 40× images, 4 hours after initiation of co-culture assay. CD8+ T cells transduced with HPV16 E7 TCR and CD4+ T cells transduced with selected CERs (CER5, CER17, CER19, CER21, CER23, CER26, CER27, CER103b, CER104, CER105, CER106, or CER116) were co-cultured with SCC152 squamous head and neck carcinoma target cells at a 1:1:0.5 ratio for 4 hours and imaged.
(§1) FIG. 55 is a bar graph representing quantification of CD4+ T cell-CER mediated phagocytosis of SCC152 target cells. Percent phagocytosis was calculated as ((number of phagocytic target events)/(total number of effector cells))*100. These numbers were calculated from 3×3 images captured by Keyence BZ-X710 fluorescence microscope at 40× resolution, 4 hours after initiation of co-culture assay. CD8+ T cells transduced with HPV16 E7 TCR and CD4+ T cells transduced with a selected CER (CER29, CER30, CER110, CER112, CER113, CER114, CER116, or CER117) were co-cultured with SCC152 target cells at a 1:1:0.5 ratio (CD8:CD4:target cell) for 4 hours and imaged.
as §1, with “56” for “55”, “Adjusted phagocytic index” for “Percent phagocytosis”, “(median area ratio” for “((number”, “of” for “of phagocytic”, “events in” for “events)/(total number of”, “cells*% phagocytosis).” for “cells))*100.”
Phagocytic activity of CD4+ T cell/CER+CD8+ T cell/HPV16 E7 TCR combinations co-cultured with SCC152 cells was visualized and quantified using KEYENCE BZ-X710 fluorescence microscope, […] and hybrid capture software.

SCC152 cells = test: Elimination of GFP-expressing SCC152 target cells over time (quantification and time lapse imaging); type: cell-based
Description: Target SCC152 cells were co-cultured with CD8+ T cells transduced with HPV E7 TCR+CD4+ T cells transduced with a selected CER, or controls (CD8+ T cell transduced with HPV E7 TCR+CD4+ transduced control) at a 1:1:1 ratio. The number of target cells were quantified using imaging software. 0 hours, 24 hours, and 48 hours are shown from left to right.
FIG. 21 is time lapse imaging from 96-well co-culture experiments comprising CD8+ T cells transduced with HPV16 E7 TCR+CD4+ T cells transduced with CER5, CER17 or CER19 incubated with SCC152 target cells at a 1:1:1 ratio. SCC152 HPV+ target cells were quantified using automated cell counting software.
FIG. 22 is time lapse imaging from 96-well co-culture experiments comprising CD8+ T cells transduced with HPV16 E7 TCR+CD4+ T cells transduced with CER21, CER23 or CER26 incubated with SCC152 target cells at a 1:1:1 ratio. SCC152 HPV+ target cells were quantified using automated cell counting software.
FIG. 23 is time lapse imaging from 96-well co-culture experiments comprising CD8+ T cells transduced with HPV16 E7 TCR+CD4+ T cells transduced with CER103b, CER104 or CER105 incubated with SCC152 target cells at a 1:1:1 ratio. SCC152 HPV+ target cells were quantified using automated cell counting software.
FIG. 24 is time lapse imaging from 96-well co-culture experiments comprising CD8+ T cells transduced with HPV16 E7 TCR+CD4+ T cells transduced with CER106, CER116 or CER27 incubated with SCC152 target cells at a 1:1:1 ratio. SCC152 HPV+ target cells were quantified using automated cell counting software.
FIG. 57 is a bar graph showing quantification of loss of SCC152 HPV16+ target cells over time during co-culture assays. SCC152 cells were transduced with green fluorescent protein (GFP) and co-cultured with CD8+ T cells transduced with HPV16 E7 TCR and CD4+ T cells transduced with a selected CER (CER29, CER30, CER110, CER112, CER113, CER114, CER116, or CER117) or a CD4+ T cell control at a 1:1:1 ratio (CD8:CD4:target cell). The number of target cells was quantified at various time points during co-culture (0 hrs, 12 hrs, 24 hrs, and 36 hrs) using fluorescence microscopy and imaging software.
FIG. 58 are fluorescence micrograph images of the co-culture assay described in FIG. 57, showing clearance of the SCC152 cells (pink) as co-culture with CD8+ T cells transduced with HPV16 E7 TCR and CD4+ T cells transduced with a selected CER (columns from left to right: control, CER29, CER30, CER110, or CER112) progresses (rows from top to bottom: 0 hrs, 12 hrs, 24 hrs, and 36 hrs).
FIG. 59 are fluorescence micrograph images of the co-culture assay described in FIG. 57, showing clearance of the SCC152 cells (pink) as co-culture with CD8+ T cells transduced with HPV16 E7 TCR and CD4+ T cells transduced with a selected CER (columns from left to right: control, CER113, CER114, CER116, or CER117) progresses (rows from top to bottom: 0 hrs, 12 hrs, 24 hrs, and 36 hrs).
Elimination of target SCC152 cells was also detected by quantifying green fluorescent protein expression by SCC152 cells over time (0 hr, 24 hr, 48 hr) during co-incubation with CD8+ T cells transduced with HPV16 E7 specific TCR+ CD4 T cells transduced with selected CER (see, FIG. 20).
Elimination of target SCC152 cells was also detected by quantifying green fluorescent protein expression by SCC152 cells over time (0 hr, 12 hr, 24 hr, 36 hr) during co-incubation with CD8+ T cells transduced with HPV16 E7 specific TCR+ CD4+ T cells transduced with selected CER (CER29, CER30, CER110, CER112, CER113, CER114, CER116, or CER117) (see, FIG. 57).

B1: CER110: Chimeric engulfment receptor: Tim4 binding, Tim4 transmembrane, TRAF6 and DAP12 signaling; SEQ ID NO: 145 (protein)
chain: MSKGLLLLWLVTELWWLYLTPAASEDTIIGFLGQPVTLPCHYLSWSQSRNSMCWGKGSCPNSKCNAELLRTDGTRIISRKSTKYTLLGKVQFGEVSLTISNTNRGDSGVYCCRIEVPGWFNDVKKNVRLELRRATTTKKPTTTTRPTTTPYVTTTTPELLPTTVMTTSVLPTTTPPQTLATTAFSTAVTTCPSTTPGSFSQETTKGSAFTTESETLPASNHSQRSMMTISTDIAVLRPTGSNPGILPSTSQLTTQKTTLTTSESLQKTTKSHQINSRQTILIIACCVGFVLMVLLFLAFLMSLLNCENSCGSSQSESDCCVAMASSCSAVTKDDSVGGTASTGNLSSSFMEEIQGYDVEFDPPLESKYECPICLMALREAVQTPCGHRFCKACIIKSIRDAGHKCPVDNEILLENQLFPDNFAKREILSLMVKCPNEGCLHKMELRHLEDHQAHCEFALMDCPQCQRPFQKFHINIHILKDCPRRQVSCDNCAASMAFEDKEIHDQNCPLANVICEYCNTILIREQMPNHYDLDCPTAPIPCTFSTFGCHEKMQRNHLARHLQENTQSHMRMLAYFLGRLVPRGRGAAEAATRKQRITETESPYQELQGQRSDVYSDLNTQRPYYK
modifications: CER110, amino acids 1-22 are signal peptide
- engulfment of SCC152 target cells (percent phagocytosis, adjusted phagocytic index) (SCC152 target cells): enhanced engulfment

B2: CER30: Chimeric engulfment receptor: Tim4 binding, Tim4 transmembrane, TRAF2 signaling; SEQ ID NO: 120 (protein)
chain: MSKGLLLLWLVTELWWLYLTPAASEDTIIGFLGQPVTLPCHYLSWSQSRNSMCWGKGSCPNSKCNAELLRTDGTRIISRKSTKYTLLGKVQFGEVSLTISNTNRGDSGVYCCRIEVPGWFNDVKKNVRLELRRATTTKKPTTTTRPTTTPYVTTTTPELLPTTVMTTSVLPTTTPPQTLATTAFSTAVTTCPSTTPGSFSQETTKGSAFTTESETLPASNHSQRSMMTISTDIAVLRPTGSNPGILPSTSQLTTQKTTLTTSESLQKTTKSHQINSRQTILIIACCVGFVLMVLLFLAFLMAAASVTPPGSLELLQPGFSKTLLGTKLEAKYLCSACRNVLRRPFQAQCGHRYCSFCLASILSSGPQNCAACVHEGIYEEGISILESSSAFPDNAARREVESLPAVCPSDGCTWKGTLKEYESCHEGRCPLMLTECPACKGLVRLGEKERHLEHECPERSLSCRHCRAPCCGADVKAHHEVCPKFPLTCDGCGKKKIPREKFQDHVKTCGKCRVPCRFHAIGCLETVEGEKQQEHEVQWLREHLAMLLSSVLEAKPLLGDQSHAGSELLQRCESLEKKTATFENIVCVLNREVERVAMTAEAC
modifications: CER30, amino acids 1-22 are signal peptide
- elimination of SCC152 cells, time lapse imaging (SCC152 cells; 0 to 36 hrs, compared to the control): enhanced elimination of SCC152 cells
- elimination of SCC152 cells (GFP quantification) (SCC152 cells; by 36 hrs, 1:1:1 ratio (CD8:CD4:target cell), compared to control): nearly complete elimination
- engulfment of SCC152 target cells (percent phagocytosis, adjusted phagocytic index) (SCC152 target cells): enhanced engulfment

B3: CER29: Chimeric engulfment receptor: Tim4 binding, Tim4 transmembrane, TRAF6 signaling; SEQ ID NO: 99 (protein)
chain: MSKGLLLLWLVTELWWLYLTPAASEDTIIGFLGQPVTLPCHYLSWSQSRNSMCWGKGSCPNSKCNAELLRTDGTRIISRKSTKYTLLGKVQFGEVSLTISNTNRGDSGVYCCRIEVPGWFNDVKKNVRLELRRATTTKKPTTTTRPTTTPYVTTTTPELLPTTVMTTSVLPTTTPPQTLATTAFSTAVTTCPSTTPGSFSQETTKGSAFTTESETLPASNHSQRSMMTISTDIAVLRPTGSNPGILPSTSQLTTQKTTLTTSESLQKTTKSHQINSRQTILIIACCVGFVLMVLLFLAFLMSLLNCENSCGSSQSESDCCVAMASSCSAVTKDDSVGGTASTGNLSSSFMEEIQGYDVEFDPPLESKYECPICLMALREAVQTPCGHRFCKACIIKSIRDAGHKCPVDNEILLENQLFPDNFAKREILSLMVKCPNEGCLHKMELRHLEDHQAHCEFALMDCPQCQRPFQKFHINIHILKDCPRRQVSCDNCAASMAFEDKEIHDQNCPLANVICEYCNTILIREQMPNHYDLDCPTAPIPCTFSTFGCHEKMQRNHLARHLQENTQSHMRMLA
modifications: CER29, amino acids 1-22 are signal peptide
- engulfment of SCC152 target cells (percent phagocytosis, adjusted phagocytic index) (SCC152 target cells): enhanced engulfment
